Assay results: the RNAGym collection of RNA variant scans (doi:10.7554/elife.80360)

B1: CPEB3 Ribozyme (parent)
chain: GGGGGCCACAGCAGAAGCGUUCACGUCGCGGCCCCUGUCAGAUUCUGGUGAAUCUGCGAAUUCUGCUGU

Variants of: B1
Assay: self-cleavage, relative activity (ratio to wild type); higher = more cleavage; co-transcriptional

Variant | self-cleavage
GGGGGUCACAGCAGAAGCGUUCACGUCGCGGCCCCUGUCAGAUUCUGGUGAAUCUGCGACUUCUGCUGU [C6U A60C] | 0.318
GGGGGUCACAGCAGAAGCGUUCACGUCGCGGCCCCUGUCAGAUUCUGGUGAAUCUGCGAUUUCUGCUGU [C6U A60U] | 0.401
GGGGGUCACAGCAGAAGCGUUCACGUCGCGGCCCCUGUCAGAUUCUGGUGAAUCUGCGAGUUCUGCUGU [C6U A60G] | 0.85
GGGGGUCACAGCCGAAGCGUUCACGUCGCGGCCCCUGUCAGAUUCUGGUGAAUCUGCGAAUUCUGCUGU [C6U A13C] | 0.85
GGGGGGCACAGCAGAAGCGUUCACGGCGCGGCCCCUGUCAGAUUCUGGUGAAUCUGCGAAUUCUGCUGU [C6G U26G] | 0.224
GGGGGGCACAGCAGAAGCGUUCACGACGCGGCCCCUGUCAGAUUCUGGUGAAUCUGCGAAUUCUGCUGU [C6G U26A] | 0.188
GGGGGGCACAGCAGAAGCGUGCACGUCGCGGCCCCUGUCAGAUUCUGGUGAAUCUGCGAAUUCUGCUGU [C6G U21G] | 0.0354
GGGGGGCACAGCAGAAGCGUCCACGUCGCGGCCCCUGUCAGAUUCUGGUGAAUCUGCGAAUUCUGCUGU [C6G U21C] | 0.312
GGGGGGCACAGCAGAAGCGUUCACGUCGCGGCCCCUGACAGAUUCUGGUGAAUCUGCGAAUUCUGCUGU [C6G U38A] | 0.248
GGGGGGCACAGCAGAAGCGUUCACGUCGCGGCCCCUGCCAGAUUCUGGUGAAUCUGCGAAUUCUGCUGU [C6G U38C] | 0.227
GGGGGGCACAGCAGAAGCGUUCACGUCGCGGCCCCUGUCAAAUUCUGGUGAAUCUGCGAAUUCUGCUGU [C6G G41A] | 0.122
GGGGGGCACAGCAGAAGCGUUCACGUCGCGGCCCCUGUCAUAUUCUGGUGAAUCUGCGAAUUCUGCUGU [C6G G41U] | 0.252
GGGGGGCACAGCAGAAGCGUUCACGUCGCCGCCCCUGUCAGAUUCUGGUGAAUCUGCGAAUUCUGCUGU [C6G G30C] | 0.133
GGGGGGCACAGCAGAAGCGUUCACGUCGCGGCCCCUGUCAGAUUCUGUUGAAUCUGCGAAUUCUGCUGU [C6G G48U] | 0.391
GGGGGGCACAGCAGAAGCGUUCACGUCGCGGCCCCUGUCAGAUUCUGCUGAAUCUGCGAAUUCUGCUGU [C6G G48C] | 0.35
GGGGGUCACAGCAGAAGCGUUCACGUCGCGGCCCCUGUCAGAUUCUGGUGCAUCUGCGAAUUCUGCUGU [C6U A51C] | 0.905
GGGGGGCACAGCAGAAGCGUUCACGUCGCGGCCCCUGUCAGAUUCUGGUGAAUCUGCGAAUUCAGCUGU [C6G U64A] | 0.133
GGGGGGCACAGCAGAAGCGUUCACGUCGCGGCCCCUGUCAGAUUCUGGUGAAUCUGCUAAUUCUGCUGU [C6G G58U] | 0.402
GGGGGGCACAGCAGAAGCGUUCACGUCGCGGCCCCUGUCAGAUUCUGGUGAAUCUGCCAAUUCUGCUGU [C6G G58C] | 0.294
GGGGGGCACAGCAGAAGCGUUCACGUCGCGGCCCCUGUCAGAUUCUGGUGAAUCUGCAAAUUCUGCUGU [C6G G58A] | 0.2
GGGGGGCACAGCAGAAGCGUUCACGUCGCGGCCCCUGUCAGAUUCUGGUGAAUCUACGAAUUCUGCUGU [C6G G56A] | 0.204
GGGGGGCACAGCAGAAGCGUUCACGUCGCGGCCCCUGUCAGAUUCUGGUGAAUCUUCGAAUUCUGCUGU [C6G G56U] | 0.152
GGGGGGCACAGCAGAAGCGUUCACGUCGCGGCCCCUGUCAGAUUCUGGUGAAUCUCCGAAUUCUGCUGU [C6G G56C] | 0.199
GGGGGGCACAGCAGAAGCGUUCACGUCGCGGCCCCUGUCAGAUUCUGGUGAAUCUGCGAAUGCUGCUGU [C6G U62G] | 0.0551
GGGGGGCACAGCAGAAGCGUUCACGUCGCGGCCCCUGUCAGAUUCUGGUGAAUCUGCGAAUACUGCUGU [C6G U62A] | 0.129
GGGGGGCACAGCAGAAGCGUUCACGUCGCGGCCCCAGUCAGAUUCUGGUGAAUCUGCGAAUUCUGCUGU [C6G U36A] | 0.0334

Variant | self-cleavage
GGGGGGCACAGCAGAAGCGUUCACGUCGCGGCCCCGGUCAGAUUCUGGUGAAUCUGCGAAUUCUGCUGU [C6G U36G] | 0.105
GGGGGGCACAGCAGAAGCGUUCACGUCGCGGCCCCUGUCAGAUUCUGGUGAAUCUGCGAAUUCUGCGGU [C6G U67G] | 0.374
GGGGGGCACAGCAGAAGCGUUCACGUCGCGGCCCCUGUCAGAUUCUGGUGAAUCUGCGAAUUCUGCCGU [C6G U67C] | 0.344
GGGGGUCACAGCAGCAGCGUUCACGUCGCGGCCCCUGUCAGAUUCUGGUGAAUCUGCGAAUUCUGCUGU [C6U A15C] | 0.802
GGGGGUCACAGCAGGAGCGUUCACGUCGCGGCCCCUGUCAGAUUCUGGUGAAUCUGCGAAUUCUGCUGU [C6U A15G] | 0.981
GGGGGGCACAGCAGAAGCGUUCACGUCGCGGCCCCUGUCAGAUUCUGGUGAAUCUGCGAAUUCUUCUGU [C6G G65U] | 0.226
GGGGGGCACAGCAGAAGCGUUCACGUCGCGGCCCCUGUCAGAUUCUGGUGAAUCUGCGAAUUCUACUGU [C6G G65A] | 0.109
GGGGGGCACAGCAGAAGCGUUCACGUCGCGUCCCCUGUCAGAUUCUGGUGAAUCUGCGAAUUCUGCUGU [C6G G31U] | 0.967
GGGGGGCACAGCAGAAGCGUUCACGUCGCGACCCCUGUCAGAUUCUGGUGAAUCUGCGAAUUCUGCUGU [C6G G31A] | 0.753
GGGGGGCACAGCAGAAGCGUUCACGUCGCGGCCCCUGUCAGAUUCUCGUGAAUCUGCGAAUUCUGCUGU [C6G G47C] | 0.36
GGGGGGCACAGCAGAAGCGUUCACGUCGCGGCCCCUGUCAGAUUCUAGUGAAUCUGCGAAUUCUGCUGU [C6G G47A] | 0.377
GGGGGGCACAGCAGAAGCGAUCACGUCGCGGCCCCUGUCAGAUUCUGGUGAAUCUGCGAAUUCUGCUGU [C6G U20A] | 0.0487
GGGGGGCACAGCAGAAGCGUUCACGUCGCGGCCCCUGUCAGAUUCUGGCGAAUCUGCGAAUUCUGCUGU [C6G U49C] | 0.417
GGGGGGCACAGCAGAAGCGUUCACGUCGCGGCCCCUGUCAGAUUCUGGAGAAUCUGCGAAUUCUGCUGU [C6G U49A] | 0.467
GGGGGGCACAGCAGAAGCGUUCACGUCGCGGCCCCUGUCAGAUUCUGGGGAAUCUGCGAAUUCUGCUGU [C6G U49G] | 0.31
GGGGGUCACAGCAGAAGCGUUCACGUCGCGGCCCCUGUCAGCUUCUGGUGAAUCUGCGAAUUCUGCUGU [C6U A42C] | 0.966
GGGGGUCACAGCAGAAGCGUUCACGUCGCGGCCCCUGUCAGUUUCUGGUGAAUCUGCGAAUUCUGCUGU [C6U A42U] | 0.957
GGGGGGCACAGCAGAAGCGUUCACGUCGCGGCCCCUGUCAGAUUCUGGUUAAUCUGCGAAUUCUGCUGU [C6G G50U] | 0.37
GGGGGGCACAGCAGAAGCGUUCACGUCGCGGCCCCUGUCAGAUUCUGGUAAAUCUGCGAAUUCUGCUGU [C6G G50A] | 0.42
GGGGGUCGCAGCAGAAGCGUUCACGUCGCGGCCCCUGUCAGAUUCUGGUGAAUCUGCGAAUUCUGCUGU [C6U A8G] | 0.813
GGGGGUCUCAGCAGAAGCGUUCACGUCGCGGCCCCUGUCAGAUUCUGGUGAAUCUGCGAAUUCUGCUGU [C6U A8U] | 1.01
GGGGGUCCCAGCAGAAGCGUUCACGUCGCGGCCCCUGUCAGAUUCUGGUGAAUCUGCGAAUUCUGCUGU [C6U A8C] | 0.941
GGGGGUCACAGCAGAAGCGUUCACGUCGCGGCCCCUGUCAGAUUCUGGUGAAUCUGCGAAUUCUGCUGU [C6U] | 1.01
GGGGGGCACAGCAGAAGCGUUCACGUCGCGGCCCCUGUCAGAUUCUGGUGAAUCUGCGAAUUCUGCUCU [C6G G68C] | 0.478
GGGGGGCACAGCAGAAGCGUUCACGUCGCGGCCCCUGUCAGAUUCUGGUGAAUCUGCGAAUUCUGCUAU [C6G G68A] | 0.602
GGGGGGCACAGCAGAAGCGUUCACGUCGCGGCCCCUGUCAGAUUCUGGUGAAUCUGCGAAUUCUGCUUU [C6G G68U] | 0.509

Variant | self-cleavage
GGGGGUCACUGCAGAAGCGUUCACGUCGCGGCCCCUGUCAGAUUCUGGUGAAUCUGCGAAUUCUGCUGU [C6U A10U] | 0.999
GGGGGUCACCGCAGAAGCGUUCACGUCGCGGCCCCUGUCAGAUUCUGGUGAAUCUGCGAAUUCUGCUGU [C6U A10C] | 0.985
GGGGGUCACAGCAGACGCGUUCACGUCGCGGCCCCUGUCAGAUUCUGGUGAAUCUGCGAAUUCUGCUGU [C6U A16C] | 0.12
GGGGGUCACAGCAGAGGCGUUCACGUCGCGGCCCCUGUCAGAUUCUGGUGAAUCUGCGAAUUCUGCUGU [C6U A16G] | 0.986
GGGGGUCACAGCAGAUGCGUUCACGUCGCGGCCCCUGUCAGAUUCUGGUGAAUCUGCGAAUUCUGCUGU [C6U A16U] | 0.841
GGGGGGCACAGCAGAAGCGUUCACGUCGCGGCCCCUGUCAGAUUCUGGUGAAUCUGCGAAUUCUGCUGA [C6G U69A] | 0.589
GGGGGGCACAGCAGAAGCGUUCACGUCGCGGCCCCUGUCAGAUUCUGGUGAAUCUGCGAAUUCUGCUGG [C6G U69G] | 0.639
GGGGGGCACAGCAGAAGCGUUCACGUCGCGGCCCCUGUCAGAUUCUGGUGAAUCUGCGAAUUCUGCUGC [C6G U69C] | 0.797
GGGGGUCACAGCAGAAGCGUUCACGUCGCGGCCCCUGUCUGAUUCUGGUGAAUCUGCGAAUUCUGCUGU [C6U A40U] | 0.835
GGGGGUCACAGCAGAAGCGUUCACGUCGCGGCCCCUGUCCGAUUCUGGUGAAUCUGCGAAUUCUGCUGU [C6U A40C] | 0.506
GGGGGGCACAGCAGAAGCGUUCACGUCGCGGCCCCUGUCAGACUCUGGUGAAUCUGCGAAUUCUGCUGU [C6G U43C] | 0.39
GGGGGUCACAGCAGAAGCGUUCCCGUCGCGGCCCCUGUCAGAUUCUGGUGAAUCUGCGAAUUCUGCUGU [C6U A23C] | 0.953
GGGGGUCACAGCAGAAGCGUUCUCGUCGCGGCCCCUGUCAGAUUCUGGUGAAUCUGCGAAUUCUGCUGU [C6U A23U] | 0.999
GGGGGGCACAGCAGAAGCGUUCACGUCGCGGCCCCUCUCAGAUUCUGGUGAAUCUGCGAAUUCUGCUGU [C6G G37C] | 0.0619
GGGGGGCACAGCAGAAGCGUUCACGUCGCGGCCCCUAUCAGAUUCUGGUGAAUCUGCGAAUUCUGCUGU [C6G G37A] | 0.0792
GGGGGUCACAGCAGAAGCGUUCACGUCGCGGCCCCUGUCAGAUUCUGGUGAAUCUGCGGAUUCUGCUGU [C6U A59G] | 0.961
GGGGGUCACAGCAGAAGCGUUCACGUCGCGGCCCCUGUCAGAUUCUGGUGAAUCUGCGCAUUCUGCUGU [C6U A59C] | 0.586
GGGGGUCACAGCAGAAGCGUUCACGUCGCGGCCCCUGUCAGAUUCUGGUGAAUCUGCGUAUUCUGCUGU [C6U A59U] | 0.733
GGGGGUCACAGCAGAAGCGUUCACGUCGCGGCCCCUGUCAGAUUCUGGUGAUUCUGCGAAUUCUGCUGU [C6U A52U] | 0.996
GGGGGUCACAGCAGAAGCGUUCACGUCGCGGCCCCUGUCAGAUUCUGGUGACUCUGCGAAUUCUGCUGU [C6U A52C] | 0.956
GGGGGGCACAGCAGAAGCGUUCACGUCGCGGCCCCUGUCAGAUUCUGGUGAAACUGCGAAUUCUGCUGU [C6G U53A] | 0.234
GGGGGGCACAGCAGAAGCGUUCACGUCGCGGCCCCUGUCAGAUUCUGGUGAACCUGCGAAUUCUGCUGU [C6G U53C] | 0.108
GGGGGGCACAGCAGAAGCGUUCACGUCGCGGCCCCUGUCAGAUCCUGGUGAAUCUGCGAAUUCUGCUGU [C6G U44C] | 0.281
GGGGGGCACAGCAGAAGCGUUCACGUCGCGGCCCCUGUCAGAUGCUGGUGAAUCUGCGAAUUCUGCUGU [C6G U44G] | 0.183
GGGGGGCACAGCAGAAGCGUUCACGUCGCGGCCCCUGUCAGAUACUGGUGAAUCUGCGAAUUCUGCUGU [C6G U44A] | 0.224
GGGGGGCACAGCAGAAGCGUUCACGUCGCGGCCCCUGUCAGAUUCUGGUGAAUCUGCGAACUCUGCUGU [C6G U61C] | 0.0649
